Target: recombinant α4β1 integrin (R&D Systems) (UniProt P13612)
Assay: ELISA, recombinant α4β1 immobilised; reference is the anti-VLA-4 scFv

fold ELISA signal against scFv: 10 times
Substance: Fab of Natalizumab

Source: patent US20240052039A1
